No end group written: not given here.
How the values were obtained:
[1] = molecular target: T1, mouse NMUR1-CTG (mouse, UniProt O55040 1-428); assay: cell-based or functional assay
T1 sequence (looked up): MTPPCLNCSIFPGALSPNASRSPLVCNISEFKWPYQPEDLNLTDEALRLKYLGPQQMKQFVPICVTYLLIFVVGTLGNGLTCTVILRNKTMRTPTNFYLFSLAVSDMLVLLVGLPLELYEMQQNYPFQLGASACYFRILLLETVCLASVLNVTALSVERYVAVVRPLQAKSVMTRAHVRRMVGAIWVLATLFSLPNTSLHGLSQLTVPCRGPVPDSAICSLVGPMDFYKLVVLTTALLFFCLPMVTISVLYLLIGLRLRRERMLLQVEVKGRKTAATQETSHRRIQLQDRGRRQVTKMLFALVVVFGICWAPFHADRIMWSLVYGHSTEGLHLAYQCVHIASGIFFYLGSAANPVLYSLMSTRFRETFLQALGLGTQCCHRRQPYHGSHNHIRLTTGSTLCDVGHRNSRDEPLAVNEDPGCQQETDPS

[2] = molecular target: T2, rat NMUR1-TTG (rat, UniProt Q9JJI5 1-425); assay: cell-based or functional assay
T2 sequence (looked up): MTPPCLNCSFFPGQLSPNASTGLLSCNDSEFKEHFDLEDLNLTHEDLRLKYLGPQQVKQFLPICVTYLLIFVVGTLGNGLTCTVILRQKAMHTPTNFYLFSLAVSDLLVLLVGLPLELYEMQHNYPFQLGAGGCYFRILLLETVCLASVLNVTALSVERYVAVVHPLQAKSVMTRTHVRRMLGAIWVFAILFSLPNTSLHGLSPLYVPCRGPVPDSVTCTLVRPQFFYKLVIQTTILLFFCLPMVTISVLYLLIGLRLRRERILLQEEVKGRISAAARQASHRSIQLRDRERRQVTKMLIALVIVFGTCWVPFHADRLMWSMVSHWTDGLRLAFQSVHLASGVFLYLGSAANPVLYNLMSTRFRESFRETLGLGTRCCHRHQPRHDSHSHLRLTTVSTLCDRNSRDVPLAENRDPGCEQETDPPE

[3] = molecular target: T3, mouse NMUR1-ATG (mouse, UniProt O55040 1-428); assay: cell-based or functional assay
T3 sequence (looked up): T1 sequence (looked up)

[4] = molecular target: T4, rat NMUR2 (rat, UniProt Q9ESQ4 1-395); assay: cell-based or functional assay
[5] = molecular target: T5, rat NMUR1-ATG (rat, UniProt Q9JJI5 1-425); assay: cell-based or functional assay
T5 sequence (looked up): T2 sequence (looked up)

[6] = molecular target: T6, human NMUR2 (human, UniProt Q9GZQ4 1-415); assay: cell-based or functional assay
[7] = molecular target: T7, human NMUR1 (human, UniProt Q9HB89 1-426); assay: cell-based or functional assay
T7 sequence (looked up): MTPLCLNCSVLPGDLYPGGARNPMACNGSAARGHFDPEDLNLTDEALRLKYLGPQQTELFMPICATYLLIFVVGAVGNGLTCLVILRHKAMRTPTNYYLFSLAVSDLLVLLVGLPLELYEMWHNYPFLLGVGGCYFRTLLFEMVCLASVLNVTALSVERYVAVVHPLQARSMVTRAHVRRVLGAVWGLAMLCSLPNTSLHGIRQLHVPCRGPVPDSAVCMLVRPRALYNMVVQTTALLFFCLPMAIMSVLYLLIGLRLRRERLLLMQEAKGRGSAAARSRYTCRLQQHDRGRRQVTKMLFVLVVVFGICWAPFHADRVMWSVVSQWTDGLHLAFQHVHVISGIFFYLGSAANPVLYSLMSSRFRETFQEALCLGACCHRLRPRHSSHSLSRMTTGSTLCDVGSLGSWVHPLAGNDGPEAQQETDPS

[8] = molecular target: T8, mouse NMUR2 (mouse, UniProt Q8BZ39 1-395); assay: cell-based or functional assay
[9] = molecular target: T1, mouse NMUR1-CTG; assay: 125I-hNMU-25 displacement, cell membranes
[10] = molecular target: T2, rat NMUR1-TTG; assay: 125I-hNMU-25 displacement, cell membranes
[11] = molecular target: T3, mouse NMUR1-ATG; assay: 125I-hNMU-25 displacement, cell membranes
[12] = molecular target: T4, rat NMUR2; assay: 125I-hNMU-25 displacement, cell membranes
[13] = molecular target: T5, rat NMUR1-ATG; assay: 125I-hNMU-25 displacement, cell membranes
[14] = molecular target: T6, human NMUR2; assay: 125I-hNMU-25 displacement, cell membranes
[15] = molecular target: T7, human NMUR1; assay: 125I-hNMU-25 displacement, cell membranes
[16] = molecular target: T8, mouse NMUR2; assay: 125I-hNMU-25 displacement, cell membranes
[17] = molecular target: T6, human NMUR2; assay: cell-based or functional assay; remark: listed apart in the source
[18] = molecular target: T7, human NMUR1; assay: cell-based or functional assay; remark: listed apart in the source

T6 sequence (Q9GZQ4 whole entry): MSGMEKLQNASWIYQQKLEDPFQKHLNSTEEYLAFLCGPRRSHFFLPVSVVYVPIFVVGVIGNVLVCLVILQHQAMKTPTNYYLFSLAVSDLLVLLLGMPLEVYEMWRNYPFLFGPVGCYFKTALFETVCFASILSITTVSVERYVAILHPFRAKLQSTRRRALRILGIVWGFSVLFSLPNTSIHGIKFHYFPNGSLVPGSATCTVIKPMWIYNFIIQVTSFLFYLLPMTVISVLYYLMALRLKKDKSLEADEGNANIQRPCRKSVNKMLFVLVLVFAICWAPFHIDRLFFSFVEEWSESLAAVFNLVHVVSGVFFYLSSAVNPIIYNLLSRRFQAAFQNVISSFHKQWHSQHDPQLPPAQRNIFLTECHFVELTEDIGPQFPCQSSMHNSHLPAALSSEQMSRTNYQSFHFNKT
T8 sequence (Q8BZ39 whole entry): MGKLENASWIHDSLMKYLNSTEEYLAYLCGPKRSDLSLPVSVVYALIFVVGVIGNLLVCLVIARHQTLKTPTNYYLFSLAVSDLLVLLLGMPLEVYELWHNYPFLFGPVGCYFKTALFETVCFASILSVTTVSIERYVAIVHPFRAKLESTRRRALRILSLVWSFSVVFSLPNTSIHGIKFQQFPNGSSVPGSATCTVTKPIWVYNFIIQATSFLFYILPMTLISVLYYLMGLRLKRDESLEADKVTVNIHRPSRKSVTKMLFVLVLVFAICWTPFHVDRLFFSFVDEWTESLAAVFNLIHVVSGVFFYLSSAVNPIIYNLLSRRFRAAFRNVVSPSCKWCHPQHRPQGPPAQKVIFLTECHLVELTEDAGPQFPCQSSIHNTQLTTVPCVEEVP
T4 sequence (Q9ESQ4 whole entry): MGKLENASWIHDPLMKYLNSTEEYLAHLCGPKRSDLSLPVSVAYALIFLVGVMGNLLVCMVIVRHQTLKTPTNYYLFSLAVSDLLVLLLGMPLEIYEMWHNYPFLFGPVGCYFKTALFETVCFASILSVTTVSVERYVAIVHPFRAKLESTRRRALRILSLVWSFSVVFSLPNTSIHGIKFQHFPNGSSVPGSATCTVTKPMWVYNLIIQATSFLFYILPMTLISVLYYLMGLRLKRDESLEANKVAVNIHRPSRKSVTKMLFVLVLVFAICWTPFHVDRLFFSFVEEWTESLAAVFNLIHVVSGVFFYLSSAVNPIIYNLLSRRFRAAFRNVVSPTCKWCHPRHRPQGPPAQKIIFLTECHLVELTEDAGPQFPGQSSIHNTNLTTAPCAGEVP

FRVDEEFQSPFASQSRGYFLFRPRN-NH2 (also called hNMU-25; native hNMU) [human NMU-25]
IC50 (nM), functional [1]: 2.9 nM | IC50 (nM), functional [2]: 1 nM | IC50 (nM), functional [3]: 0.9 nM | IC50 (nM), functional [4]: 1.6 nM | IC50 (nM), functional [5]: 1.3 nM | IC50 (nM), functional [6]: 0.8 nM | IC50 (nM), functional [7]: 0.2 nM | IC50 (nM), functional [8]: 0.2 nM | IC50 [9]: 0.15 nM | IC50 [10]: 0.2 nM | IC50 [11]: 0.4 nM | IC50 [12]: 0.6 nM | IC50 [13]: 1.2 nM | IC50 [14]: 0.056 nM | IC50 [15]: 0.14 nM | IC50 [16]: 0.2 nM | % activity [17]: 100% | EC50 [17]: 1.5 nM | % activity [18]: 100% | EC50 [18]: 5.5 nM
